Numbering of substitutions follows the chain as printed. Names may count otherwise.
B1: cTPI (cytosolic triosephosphate isomerase) (Arabidopsis thaliana) (protein)
chain: MARKFFVGGNWKCNGTAEEVKKIVNTLNEAQVPSQDVVEVVVSPPYVFLPLVKSTLRSDFFVAAQNCWVKKGGAFTGEVSAEMLVNLDIPWVILGHSERRAILNESSEFVGDKVAYALAQGLKVIACVGETLEEREAGSTMDVVAAQTKAIADRVTNWSNVVIAYEPVWAIGTGKVASPAQAQEVHDELRKWLAKNVSADVAATTRIIYGGSVNGGNCKELGGQADVDGFLVGGASLKPEFIDIIKAAEVKKSA
notes: tag removal not mentioned
B2: cTPI (cytosolic triosephosphate isomerase) (Arabidopsis thaliana; C218S) (protein)
chain: B1 chain with C218S
notes: tag removal not mentioned
B3: cTPI (cytosolic triosephosphate isomerase) (Arabidopsis thaliana; C127S) (protein)
chain: B1 chain with C127S
notes: tag removal not mentioned
B4: cTPI (cytosolic triosephosphate isomerase) (Arabidopsis thaliana; C127S/C218S) (protein)
chain: B1 chain with C127S, C218S
notes: tag removal not mentioned

Substrate: O=CC(O)COP(=O)(O)O
Test: coupled assay with alpha-glycerophosphate dehydrogenase, NADH consumption
Assay type: biochemical, Arabidopsis thaliana
Conditions: pH 7.8, 30°C, 100 mM Tris-Cl, 5 mM DTT, GAP 0-4 mM (from DL-GAP)
Source text: coupled assay with alpha-glycerophosphate dehydrogenase, NADH consumption on cTPI (cytosolic triosephosphate isomerase)

| Protein | Km | kcat | kcat/Km |
| --- | --- | --- | --- |
| B1 | 1320 ± 60 µM | 3410 ± 269 s⁻¹ | 2.58e+06 ± 321000 M⁻¹ s⁻¹ |
| B2 | 1680 ± 30 µM | 2690 ± 73 s⁻¹ | 1.6e+06 ± 72000 M⁻¹ s⁻¹ |
| B3 | 480 ± 40 µM | 70.4 ± 7.4 s⁻¹ | 147000 ± 28000 M⁻¹ s⁻¹ |
| B4 | 500 ± 60 µM | 14.8 ± 0.8 s⁻¹ | 29600 ± 5200 M⁻¹ s⁻¹ |
